Measured values as given in publication PMC6158740 (Nucleic Acids Research, 2018).

T1: ComM (Vibrio cholerae, UniProt Q9KVV6 1-507)
T1 sequence: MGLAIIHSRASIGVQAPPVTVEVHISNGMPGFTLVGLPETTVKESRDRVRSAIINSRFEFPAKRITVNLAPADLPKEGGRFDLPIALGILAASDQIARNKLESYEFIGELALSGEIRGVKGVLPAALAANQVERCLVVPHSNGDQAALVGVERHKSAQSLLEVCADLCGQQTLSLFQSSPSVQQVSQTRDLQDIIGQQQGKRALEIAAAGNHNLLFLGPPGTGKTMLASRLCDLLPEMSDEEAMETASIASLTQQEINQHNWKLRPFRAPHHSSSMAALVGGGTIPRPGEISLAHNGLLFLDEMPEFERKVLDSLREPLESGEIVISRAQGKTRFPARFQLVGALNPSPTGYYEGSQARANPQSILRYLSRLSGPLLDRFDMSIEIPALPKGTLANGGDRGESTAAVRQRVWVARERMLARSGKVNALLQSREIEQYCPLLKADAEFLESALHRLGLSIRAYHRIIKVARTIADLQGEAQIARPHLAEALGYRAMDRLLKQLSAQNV


Assays:
ComM [1] = target: ComM (Vibrio cholerae, UniProt Q9KVV6); details: AMP-PNP, nonhydrolyzable analogue; pH 7.5, 37 °C
ComM [2] = target: T1, ComM; assay: EMSA

| Molecule | three-strand branch migration assay, gel; oligomerization assay (ComM [1]) | binding result (ComM [2]) |
| --- | --- | --- |
| Nc1ncnc2c1ncn2[C@@H]1O[C@H](COP(=O)(O)OP(=O)(O)NP(=O)(O)O)[C@@H](O)[C@H]1O [AMP-PNP] | This activity was inhibited when ComM was incubated with AMP-PNP |  |
| ATTCCGGGGATCCGTCGACCTGCAGTTCAGAAGCAGCTCCAGCCTACA (ssDNA) [BBC742 ssDNA probe] |  | binds |
| BBC742/BBC743 dsDNA probe (dsDNA) DNA 1: ATTCCGGGGATCCGTCGACCTGCAGTTCAGAAGCAGCTCCAGCCTACA DNA 2: TGTAGGCTGGAGCTGCTTCTGAACTGCAGGTCGACGGATCCCCGGAAT |  | binds |
